Measurements from article PMC4803204, “A Novel Glutamyl (Aspartyl)-Specific Aminopeptidase A from Lactobacillus delbrueckii with Promising Properties for Application” (PLoS ONE, 2016).

Experiments:
Lb-PepA = biological target: T1, Lb-PepA (Lactobacillus delbrueckii, UniProt F0HXE4); experiment: p-nitroaniline release at […] nm, Michaelis-Menten nonlinear fit; assay type: biochemical; conditions: substrate inhibition constant, apparent; 50 mM Na/K-phosphate pH 6.0, 60 °C, 0.625 mM CoCl2
T1 construct: full length (361 aa, 1086 bp gene), C-terminal His6-tag kept, pET20b(+), E. coli BL21(DE3), Ni-NTA purified
T1 sequence (F0HXE4 1-361): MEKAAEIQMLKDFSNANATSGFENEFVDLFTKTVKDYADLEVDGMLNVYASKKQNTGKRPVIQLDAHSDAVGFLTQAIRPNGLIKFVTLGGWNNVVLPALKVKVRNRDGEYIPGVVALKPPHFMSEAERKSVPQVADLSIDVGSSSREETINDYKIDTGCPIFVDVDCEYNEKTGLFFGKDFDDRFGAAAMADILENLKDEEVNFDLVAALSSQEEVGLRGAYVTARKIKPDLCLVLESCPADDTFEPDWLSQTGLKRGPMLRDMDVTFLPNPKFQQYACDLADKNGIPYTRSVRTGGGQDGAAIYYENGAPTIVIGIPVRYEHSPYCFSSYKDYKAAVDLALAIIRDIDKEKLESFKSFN

Lc-PepA [1] = biological target: T2, Lc-PepA (Lactococcus lactis, UniProt Q9CIH3); experiment: as above; assay type: biochemical; conditions: substrate inhibition constant, apparent; 50 mM Na/K-phosphate pH 8.0, 65 °C, 0.3125 mM CoCl2
T2 construct: full length (355 aa, 1068 bp gene), C-terminal His6-tag kept, pET20b(+), E. coli BL21(DE3), Ni-NTA purified
T2 sequence (Q9CIH3 1-355): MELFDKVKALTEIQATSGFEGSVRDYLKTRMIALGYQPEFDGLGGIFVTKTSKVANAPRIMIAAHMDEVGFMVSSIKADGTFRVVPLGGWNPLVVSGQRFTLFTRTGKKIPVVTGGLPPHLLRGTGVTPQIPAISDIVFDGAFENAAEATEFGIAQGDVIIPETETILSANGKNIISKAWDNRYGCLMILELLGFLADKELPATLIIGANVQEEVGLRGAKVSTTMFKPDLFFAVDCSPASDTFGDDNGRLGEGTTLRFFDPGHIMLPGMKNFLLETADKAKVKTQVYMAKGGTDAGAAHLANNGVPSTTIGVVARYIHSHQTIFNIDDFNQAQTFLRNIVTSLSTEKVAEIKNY

Lc-PepA [2] = biological target: T2, Lc-PepA; experiment: as above; assay type: biochemical; conditions: substrate inhibition constant, apparent; 50 mM Na/K-phosphate pH 8.0, 65 °C, 0.3125 mM CoCl2; remark: listed apart in the source
Lc-PepA [3] = biological target: T2, Lc-PepA; experiment: product inhibition, p-nitroaniline release at […] nm; assay type: biochemical
[4] = biological target: Glutamyl (aspartyl)-specific aminopeptidase A (PepA) from Lactobacillus delbrueckii ssp. lactis DSM 20072 (Lactobacillus delbrueckii ssp. lactis DSM 20072); experiment: SEC; Superdex 200 10/300 GL, 30 uL at 1 mg/mL, 0.75 mL/min, 10 mM Na/K-phosphate pH 6.0 with 150 mM NaCl; native mass against calibration proteins, divided by the monomer's mass
[5] = biological target: Glutamyl (aspartyl)-specific aminopeptidase A (PepA) from Lactococcus lactis ssp. lactis DSM 20481 (Lactococcus lactis ssp. lactis DSM 20481) (UniProt Q48677); experiment: SEC; Superdex 200 10/300 GL, 30 uL at 1 mg/mL, 0.75 mL/min, 10 mM Na/K-phosphate pH 8.0 with 150 mM NaCl; native mass against calibration proteins, divided by the monomer's mass
purified protein [6] = substrate: N[C@@H](CCC(=O)O)C(=O)Nc1ccc([N+](=O)[O-])cc1; experiment: purified protein; assay type: biochemical, Lactococcus lactis; conditions: apparent, 50 mM Na/K-phosphate pH 8.0, 65 °C, 0.3125 mM CoCl2, about 5% DMSO, fit with substrate inhibition
purified protein [7] = substrate: N[C@@H](CC(=O)O)C(=O)Nc1ccc([N+](=O)[O-])cc1; experiment: purified protein; assay type: biochemical, Lactococcus lactis; conditions: apparent, 50 mM Na/K-phosphate pH 8.0, 65 °C, 0.3125 mM CoCl2, about 5% DMSO, fit with substrate inhibition
purified protein [8] = substrate: N[C@@H](CCC(=O)O)C(=O)Nc1ccc([N+](=O)[O-])cc1; experiment: purified protein; assay type: biochemical, Lactobacillus delbrueckii; conditions: apparent, 50 mM Na/K-phosphate pH 6.0, 60 °C, 0.625 mM CoCl2, about 5% DMSO, substrate tested only up to 7.3 mM (solubility)
purified protein [9] = substrate: N[C@@H](CC(=O)O)C(=O)Nc1ccc([N+](=O)[O-])cc1; experiment: purified protein; assay type: biochemical, Lactobacillus delbrueckii; conditions: apparent, 50 mM Na/K-phosphate pH 6.0, 60 °C, 0.625 mM CoCl2, about 5% DMSO, fit with substrate inhibition

N[C@@H](CC(=O)O)C(=O)Nc1ccc([N+](=O)[O-])cc1 [H-Asp-pNA]
H-Asp-pNA / KIS [mM] (Lb-PepA): 6.66 mM
H-Asp-pNA / KIS [mM] (Lc-PepA [1]): 41.9 mM

N[C@@H](CCC(=O)O)C(=O)Nc1ccc([N+](=O)[O-])cc1 [H-Glu-pNA]
H-Glu-pNA / KIS [mM] (Lc-PepA [2]): 3.61 mM

N[C@@H](CC(=O)O)C(=O)O [L-Asp]
activity at 10000 µM (Lc-PepA [3]): 78.2%

N[C@@H](CCC(=O)O)C(=O)O [L-Glu]
activity at 10000 µM (Lc-PepA [3]): 82.3%

Glutamyl (aspartyl)-specific aminopeptidase A (PepA) from Lactobacillus delbrueckii ssp. lactis DSM 20072 (enzyme)
stoichiometry N [4]: 12

Glutamyl (aspartyl)-specific aminopeptidase A (PepA) from Lactococcus lactis ssp. lactis DSM 20481 (from UniProt Q48677 1-355) (enzyme)
stoichiometry N [5]: 12

B1: Lc-PepA (Lactococcus lactis subsp. lactis Il1403) (protein)
chain: MELFDKVKALTEIQATSGFEGSVRDYLKTRMIALGYQPEFDGLGGIFVTKTSKVANAPRIMIAAHMDEVGFMVSSIKADGTFRVVPLGGWNPLVVSGQRFTLFTRTGKKIPVVTGGLPPHLLRGTGVTPQIPAISDIVFDGAFENAAEATEFGIAQGDVIIPETETILSANGKNIISKAWDNRYGCLMILELLGFLADKELPATLIIGANVQEEVGLRGAKVSTTMFKPDLFFAVDCSPASDTFGDDNGRLGEGTTLRFFDPGHIMLPGMKNFLLETADKAKVKTQVYMAKGGTDAGAAHLANNGVPSTTIGVVARYIHSHQTIFNIDDFNQAQTFLRNIVTSLSTEKVAEIKNY
notes: full length (355 aa, 1068 bp gene), C-terminal His6-tag kept, pET20b(+), E. coli BL21(DE3), Ni-NTA purified
Km (purified protein [6]): 190 µM
Km (purified protein [7]): 340 µM

B2: Lb-PepA (Lactobacillus delbrueckii subsp. lactis DSM 20072) (protein)
chain: MEKAAEIQMLKDFSNANATSGFENEFVDLFTKTVKDYADLEVDGMLNVYASKKQNTGKRPVIQLDAHSDAVGFLTQAIRPNGLIKFVTLGGWNNVVLPALKVKVRNRDGEYIPGVVALKPPHFMSEAERKSVPQVADLSIDVGSSSREETINDYKIDTGCPIFVDVDCEYNEKTGLFFGKDFDDRFGAAAMADILENLKDEEVNFDLVAALSSQEEVGLRGAYVTARKIKPDLCLVLESCPADDTFEPDWLSQTGLKRGPMLRDMDVTFLPNPKFQQYACDLADKNGIPYTRSVRTGGGQDGAAIYYENGAPTIVIGIPVRYEHSPYCFSSYKDYKAAVDLALAIIRDIDKEKLESFKSFN
notes: full length (361 aa, 1086 bp gene), C-terminal His6-tag kept, pET20b(+), E. coli BL21(DE3), Ni-NTA purified
Km (purified protein [8]): 25200 µM
Km (purified protein [9]): 1210 µM
